From the supplement of paper PMC10126150
± gives the standard deviation of the averaged measurements.

Tested on: ATP
Assay: switch fluorescence ratio, 500 uM ATP over buffer (Cy3 cluster intensity, sum of 5 cycles each) (fold (ratio)); higher = stronger signal-on switching upon ATP binding; sequences stand for … in TCGTCGGCAGCGTCAGATGTGTATAAGAGACAGTTTTTTTTTTTTTTTTTTTTTTTTT…TC
Details: aptamer strand: ATP DNA aptamer (quencher-CACCTGGGGGAGTATTGCGGAGGAAGG + anchor), 100 nM annealed; ATP concentration: 500 uM
How it was run: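 Between each of five buffer/ATP cycles, the flow-cell was stripped with NaOH and re-annealed. Each cycle imaged Cy3-labelled switching-strand clusters, annealed to 100 nM quencher-labelled ATP aptamer on a modified Illumina MiSeq flow-cell, first in selection buffer and then after 15 min with 500 uM ATP at 22 °C. The fluorescence ratio is summed target-cycle over summed buffer-cycle Cy3 intensity per cluster, averaged per switch-domain sequence, with clusters outside 100-1000 RFU excluded.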
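Further: ATP exposure 15 min at 22 °C before imaging.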

TTGGGGGTGC and TTGGGGGTTC are within error of each other in switch fluorescence ratio: 0.997 ± 0.052 for the first, 1.01 ± 0.05 for the second.

TTGGGGTATC and TTGGGGTCGG are within error of each other in switch fluorescence ratio: 1.01 ± 0.02 for the first, 0.999 ± 0.037 for the second.

TTGGGGTCTT and TTGGGGTGCT are within error of each other in switch fluorescence ratio: 1.02 ± 0.043 for the first, 0.992 ± 0.035 for the second.

First: TTGGGTATTG
Second: TTGGGTCTCC
The switch fluorescence ratio of the first is lower: 0.966 ± 0.034 for the first, 1.03 ± 0.027 for the second.

Going from TTGGGTCTTC to TTGGGTGCAG, the switch fluorescence ratio rises from 0.9736 ± 0.0014 to 1.016 ± 0.0075.

TTGGGTGCCG and TTGGGTTAAG are within error of each other in switch fluorescence ratio: 1.03 ± 0.048 for the first, 0.983 ± 0.015 for the second.

TTGGGTTAGG and TTGGGTTATG are within error of each other in switch fluorescence ratio: 0.979 ± 0.021 for the first, 1 ± 0.013 for the second.

TTGGGTTATT and TTGGGTTCCG are within error of each other in switch fluorescence ratio: 0.979 ± 0.029 for the first, 0.996 ± 0.057 for the second.

TTGGGTTGCT and TTGGGTTGTT are within error of each other in switch fluorescence ratio: 1.12 ± 0.21 for the first, 0.986 ± 0.033 for the second.

Compared with TTGGGTTTGT, TTGGTAAGAC is higher in switch fluorescence ratio: 0.997 ± 0.017 for the first, 1.14 ± 0.12 for the second.

TTGGTAGCGG and TTGGTAGGGT are within error of each other in switch fluorescence ratio: 1.02 ± 0.034 for the first, 0.995 ± 0.031 for the second.

TTGGTAGTGC and TTGGTATGTG are within error of each other in switch fluorescence ratio: 0.973 ± 0.015 for the first, 0.968 ± 0.017 for the second.

TTGGTCGCGT and TTGGTCGGGA are within error of each other in switch fluorescence ratio: 1.003 ± 0.0019 for the first, 1.15 ± 0.2 for the second.

Going from TTGGTGCAGC to TTGGTGCCTT, the switch fluorescence ratio rises from 1.025 ± 0.0075 to 1.07 ± 0.033.

TTGGTGGCGG and TTGGTGGGCA are within error of each other in switch fluorescence ratio: 0.978 ± 0.028 for the first, 0.993 ± 0.038 for the second.

TTGGTGGGTA and TTGGTGGGTG are within error of each other in switch fluorescence ratio: 0.988 ± 0.013 for the first, 1.01 ± 0.045 for the second.

TTGGTGGTCC and TTGGTGGTTC are within error of each other in switch fluorescence ratio: 0.999 ± 0.012 for the first, 0.99 ± 0.037 for the second.

Compared with TTGGTGTCGC, TTGGTGTCTT is lower in switch fluorescence ratio: 1.016 ± 0.0034 for the first, 0.959 ± 0.011 for the second.

TTGGTTAAGT and TTGGTTAGGG are within error of each other in switch fluorescence ratio: 1.01 ± 0.046 for the first, 0.986 ± 0.027 for the second.

Going from TTGGTTATAG to TTGGTTATCG, the switch fluorescence ratio falls from 1.01 ± 0.011 to 0.97068 ± 0.00069.

TTGGTTCGCC and TTGGTTGAGA are within error of each other in switch fluorescence ratio: 1.003 ± 0.0097 for the first, 0.9939 ± 0.0071 for the second.

TTGGTTGCGG and TTGGTTTAGG are within error of each other in switch fluorescence ratio: 1.02 ± 0.024 for the first, 0.983 ± 0.022 for the second.

First: TTGGTTTATC
Second: TTGGTTTTAA
The switch fluorescence ratio of the first is lower: 1 ± 0.015 for the first, 1.03 ± 0.014 for the second.

TTGTAATGAT and TTGTAATTAG are within error of each other in switch fluorescence ratio: 0.988 ± 0.027 for the first, 1 ± 0.039 for the second.

TTGTACGCTA and TTGTACGTGG are within error of each other in switch fluorescence ratio: 1.82 ± 0.73 for the first, 1.07 ± 0.023 for the second.

Going from TTGTAGCTTT to TTGTAGGAGG, the switch fluorescence ratio falls from 1.12 ± 0.089 to 0.9811 ± 0.0032.

TTGTAGGATA and TTGTAGGGGT are within error of each other in switch fluorescence ratio: 0.994 ± 0.012 for the first, 1.02 ± 0.052 for the second.

TTGTAGGGT and TTGTAGTCTC are within error of each other in switch fluorescence ratio: 0.986 ± 0.014 for the first, 1.03 ± 0.11 for the second.

TTGTATTTA and TTGTATTTTG are within error of each other in switch fluorescence ratio: 1.01 ± 0.05 for the first, 0.985 ± 0.038 for the second.

TTGTATTTTT and TTGTCATTTT are within error of each other in switch fluorescence ratio: 0.98 ± 0.033 for the first, 1.04 ± 0.067 for the second.

TTGTCGGCG and TTGTCGGCTT are the same in switch fluorescence ratio: 1 ± 0.013 for the first, 1.002 ± 0.0092 for the second.

TTGTCGTGCC and TTGTCGTGTG are within error of each other in switch fluorescence ratio: 1.031 ± 0.0098 for the first, 1 ± 0.033 for the second.

TTGTCTGTTA and TTGTGAAAAA are within error of each other in switch fluorescence ratio: 1 ± 0.043 for the first, 0.972 ± 0.026 for the second.

TTGTGAAATT and TTGTGAACCG are within error of each other in switch fluorescence ratio: 0.993 ± 0.015 for the first, 0.973 ± 0.014 for the second.

TTGTGAATTA and TTGTGAATTC are within error of each other in switch fluorescence ratio: 0.982 ± 0.022 for the first, 0.977 ± 0.043 for the second.

TTGTGAGTTT and TTGTGATGTG are within error of each other in switch fluorescence ratio: 1 ± 0.055 for the first, 0.986 ± 0.023 for the second.

TTGTGATTAG and TTGTGCAAGG are within error of each other in switch fluorescence ratio: 0.982 ± 0.032 for the first, 1.34 ± 0.47 for the second.

Compared with TTGTGCATTT, TTGTGCCGGG is lower in switch fluorescence ratio: 1.01 ± 0.011 for the first, 0.9391 ± 0.0045 for the second.

In the case of TTGTGCGGGA, the switch fluorescence ratio is reported as 0.999 ± 0.013.
